Reference: article PMC4490372, “Architecture of TFIIIC and its role in RNA polymerase III pre-initiation complex assembly” (Nature Communications, 2015)
Changes are numbered by the printed parent chain. One block for each binder: values may come before it.

Experiments:
[1] = biological target: T1, τ138 (Tfc3), τB subunit of endogenous S. cerevisiae TFIIIC (S. cerevisiae, UniProt P34111 1-1160); test: cross-linking; XL-MS: purified endogenous TFIIIC (30 μg, 1 μg/μl) cross-linked with H12/D12 DSS to 2 mM, 40 min at 37 °C; ld-score >25; settings: both partners purified
T1 construct: τ138 (Tfc3), subunit of S. cerevisiae TFIIIC, endogenous subunit in the purified complex; source: endogenous, purified from S. cerevisiae strain SC2342 as part of TFIIIC (TAP tag on τ60)
T1 sequence (looked up): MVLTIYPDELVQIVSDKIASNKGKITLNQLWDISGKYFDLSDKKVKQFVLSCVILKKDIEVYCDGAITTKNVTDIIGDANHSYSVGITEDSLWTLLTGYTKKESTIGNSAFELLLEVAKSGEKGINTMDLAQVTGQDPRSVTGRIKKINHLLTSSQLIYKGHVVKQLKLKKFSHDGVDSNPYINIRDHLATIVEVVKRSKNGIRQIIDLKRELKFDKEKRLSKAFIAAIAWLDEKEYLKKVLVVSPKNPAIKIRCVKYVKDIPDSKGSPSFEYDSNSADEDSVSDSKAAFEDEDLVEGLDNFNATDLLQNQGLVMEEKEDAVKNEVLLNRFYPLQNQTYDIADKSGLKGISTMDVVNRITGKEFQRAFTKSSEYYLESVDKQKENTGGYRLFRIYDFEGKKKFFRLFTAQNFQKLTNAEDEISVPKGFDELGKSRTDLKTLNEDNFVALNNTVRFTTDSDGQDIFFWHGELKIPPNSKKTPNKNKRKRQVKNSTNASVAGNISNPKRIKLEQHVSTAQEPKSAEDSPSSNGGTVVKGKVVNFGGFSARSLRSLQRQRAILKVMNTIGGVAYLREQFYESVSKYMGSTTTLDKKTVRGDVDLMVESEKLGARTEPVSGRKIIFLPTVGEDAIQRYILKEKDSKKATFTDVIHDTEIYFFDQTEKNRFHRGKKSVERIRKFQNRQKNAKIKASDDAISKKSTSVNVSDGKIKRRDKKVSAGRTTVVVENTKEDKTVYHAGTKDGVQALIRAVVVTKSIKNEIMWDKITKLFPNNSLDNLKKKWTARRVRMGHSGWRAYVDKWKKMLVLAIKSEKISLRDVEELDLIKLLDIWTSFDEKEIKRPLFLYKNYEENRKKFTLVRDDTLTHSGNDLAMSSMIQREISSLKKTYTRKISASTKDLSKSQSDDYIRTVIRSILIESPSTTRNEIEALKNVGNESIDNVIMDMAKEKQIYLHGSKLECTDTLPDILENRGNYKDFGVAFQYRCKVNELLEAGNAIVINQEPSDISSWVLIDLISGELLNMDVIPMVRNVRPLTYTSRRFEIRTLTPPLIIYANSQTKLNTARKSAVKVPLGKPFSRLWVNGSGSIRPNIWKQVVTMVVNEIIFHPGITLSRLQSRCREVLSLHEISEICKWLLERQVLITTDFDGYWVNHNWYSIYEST

τ131 (123–566) E498K [2] = biological target: T2, τ131 (123–566) E498K (S. cerevisiae, UniProt P33339 123-566, E498K); test: ITC; MicroCal ITC200; 15 μM τ138 in the cell, 150 μM τ131 in the syringe; 20 mM Tris pH 7.5, 150 mM NaCl, 2 mM β-mercaptoethanol; 25 °C; settings: both partners purified
T2 construct: source: E. coli, purified by the same method as the wild type; not shown: His6, N-terminal, cleaved
T2 sequence (looked up): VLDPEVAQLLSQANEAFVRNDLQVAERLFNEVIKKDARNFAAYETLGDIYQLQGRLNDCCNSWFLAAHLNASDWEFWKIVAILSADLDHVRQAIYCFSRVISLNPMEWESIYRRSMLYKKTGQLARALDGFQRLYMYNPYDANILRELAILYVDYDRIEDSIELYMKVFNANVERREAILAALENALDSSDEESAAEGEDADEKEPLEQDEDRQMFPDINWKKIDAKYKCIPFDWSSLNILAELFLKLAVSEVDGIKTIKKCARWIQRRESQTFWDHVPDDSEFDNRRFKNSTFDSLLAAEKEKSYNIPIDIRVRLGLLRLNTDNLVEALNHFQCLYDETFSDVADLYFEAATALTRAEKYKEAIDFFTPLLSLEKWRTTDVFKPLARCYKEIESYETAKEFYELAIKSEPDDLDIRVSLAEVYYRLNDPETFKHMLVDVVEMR

τ131 (123–566) E497K [3] = biological target: T3, τ131 (123–566) E497K (S. cerevisiae, UniProt P33339 123-566, E497K); test: as above; settings: both partners purified
T3 construct: source: E. coli, purified by the same method as the wild type; not shown: His6, N-terminal, cleaved
T3 sequence (looked up): T2 sequence (looked up) with E375K, K376E

[4] = biological target: T4, τ131 (123–566), TPR array, wild type (S. cerevisiae, UniProt P33339 123-566); test: as above; settings: both partners purified
T4 construct: also called τ131 TPR array; source: E. coli BL21 Star (DE3) pRARE, purified (Ni-NTA, TEV cleavage, S200 SEC); not shown: His6, N-terminal, cleaved
T4 sequence (looked up): T2 sequence (looked up) with K376E

τ131 (123–566) E472K [5] = biological target: T5, τ131 (123–566) E472K (S. cerevisiae, UniProt P33339 123-566, E472K); test: as above; settings: both partners purified
T5 construct: source: E. coli, purified by the same method as the wild type; not shown: His6, N-terminal, cleaved
T5 sequence (looked up): T2 sequence (looked up) with E350K, K376E

τ131 (123–566) E498K [6] = biological target: T6, τ131 (123–566) E498K (S. cerevisiae, UniProt P33339 123-566, E498K); test: ITC
T6 sequence: T2 sequence (looked up)

τ131 (123–566) E497K [7] = biological target: T7, τ131 (123–566) E497K (S. cerevisiae, UniProt P33339 123-566, E497K); test: ITC
T7 sequence: T2 sequence (looked up) with E375K, K376E

τ131 (123–566) E472K [8] = biological target: T8, τ131 (123–566) E472K (S. cerevisiae, UniProt P33339 123-566, E472K); test: ITC
T8 sequence: T2 sequence (looked up) with E350K, K376E

- binding result [1]: binds
B1: τ91 (Tfc6), τB subunit of endogenous S. cerevisiae TFIIIC (natural protein, UniProt Q06339 1-672, looked up)
chain: MAVIPAKKRGRPRKSVVAEVPYDSLASPVSENSGSKRPRRNASKKAVANFAQLVHAGRDDVINTTQVNNVDDTDDDDFVLNDEGDGEESDNVEIEFENELESTKNEVADLNSSGSGASVRPSGRRNTVQKLRLKKNSTKNMKSSSPGSSLGQKGRPIRLLKDLSSARDKIERIYGLNKEKLLLLAKVKEGFETSVFDFPFKNIQPDSPYFVCLDPPCKKESAYNKVIGDKNRTVYHEINKTEFENMIKLRTKRLKLLIGEVDAEVSTGDKIEFPVLANGKRRGFIYNVGGLVTDIAWLNIEENTDIGKDIQYLAVAVSQYMDEPLNEHLEMFDKEKHSSCIQIFKMNTSTLHCVKVQTIVHSFGEVWDLKWHEGCHAPHLVGCLSFVSQEGTINFLEIIDNATDVHVFKMCEKPSLTLSLADSLITTFDFLSPTTVVCGFKNGFVAEFDLTDPEVPSFYDQVHDSYILSVSTAYSDFEDTVVSTVAVDGYFYIFNPKDIATTKTTVSRFRGSNLVPVVYCPQIYSYIYSDGASSLRAVPSRAAFAVHPLVSRETTITAIGVSRLHPMVLAGSADGSLIITNAARRLLHGIKNSSATQKSLRLWKWDYSIKDDKYRIDSSYEVYPLTVNDVSKAKIDAHGINITCTKWNETSAGGKCYAFSNSAGLLTLEYLS
notes: τ91 (Tfc6), subunit of S. cerevisiae TFIIIC, endogenous subunit in the purified complex; source: endogenous, purified from S. cerevisiae strain SC2342 as part of TFIIIC (TAP tag on τ60)

- binding result [1]: binds
B2: τ131 (Tfc4), τA subunit of endogenous S. cerevisiae TFIIIC (natural protein, UniProt P33339 1-1025, looked up)
chain: MAAGKLKKEQQNQSAERESADTGKVNDEDEEHLYGNIDDYKHLIQDEEYDDEDVPHDLQLSEDEYNSERDSSLLAEFSDYGEISEDDEEDFMNAIREASNFKVKKKKKNDKGKSYGRQRKERVLDPEVAQLLSQANEAFVRNDLQVAERLFNEVIKKDARNFAAYETLGDIYQLQGRLNDCCNSWFLAAHLNASDWEFWKIVAILSADLDHVRQAIYCFSRVISLNPMEWESIYRRSMLYKKTGQLARALDGFQRLYMYNPYDANILRELAILYVDYDRIEDSIELYMKVFNANVERREAILAALENALDSSDEESAAEGEDADEKEPLEQDEDRQMFPDINWKKIDAKYKCIPFDWSSLNILAELFLKLAVSEVDGIKTIKKCARWIQRRESQTFWDHVPDDSEFDNRRFKNSTFDSLLAAEKEKSYNIPIDIRVRLGLLRLNTDNLVEALNHFQCLYDETFSDVADLYFEAATALTRAEKYKEAIDFFTPLLSLEEWRTTDVFKPLARCYKEIESYETAKEFYELAIKSEPDDLDIRVSLAEVYYRLNDPETFKHMLVDVVEMRKHQVDETLHRISNEKSSNDTSDISSKPLLEDSKFRTFRKKKRTPYDAERERIERERRITAKVVDKYEKMKKFELNSGLNEAKQASIWINTVSELVDIFSSVKNFFMKSRSRKFVGILRRTKKFNTELDFQIERLSKLAEGDSVFEGPLMEERVTLTSATELRGLSYEQWFELFMELSLVIAKYQSVEDGLSVVETAQEVNVFFQDPERVKMMKFVKLAIVLQMDDEEELAENLRGLLNQFQFNRKVLQVFMYSLCRGPSSLNILSSTIQQKFFLRQLKAFDSCRYNTEVNGQASITNKEVYNPNKKSSPYLYYIYAVLLYSSRGFLSALQYLTRLEEDIPDDPMVNLLMGLSHIHRAMQRLTAQRHFQIFHGLRYLYRYHKIRKSLYTDLEKQEADYNLGRAFHLIGLVSIAIEYYNRVLENYDDGKLKKHAAYNSIIIYQQSGNVELADHLMEKYLSI
notes: τ131 (Tfc4), subunit of S. cerevisiae TFIIIC, endogenous subunit in the purified complex; Endogenous subunit; source: endogenous, purified from S. cerevisiae strain SC2342 as part of TFIIIC (TAP tag on τ60)

- binding result (τ131 (123–566) E498K [2]): binds
- binding result (τ131 (123–566) E497K [3]): binds
- Kd [4]: ~80 nM
- binding result (τ131 (123–566) E472K [5]): binds
- Kd (τ131 (123–566) E498K [6]): 833 nM
- Kd (τ131 (123–566) E497K [7]): 89 nM
- Kd (τ131 (123–566) E472K [8]): 833 nM
B3: τ138 (641–693), τ131-Interaction Region (τIR) (domain or fragment, S. cerevisiae, UniProt P34111 641-693, looked up)
chain: SKKATFTDVIHDTEIYFFDQTEKNRFHRGKKSVERIRKFQNRQKNAKIKASDD
notes: The cloning and tag of this construct as used for ITC and SEC are not described; also called τ138 (τIR); unstructured region of τ138; source: purified; expression of this construct not described

- Kd [4]: ~2600 nM
B4: τ138 construct with residues 682–693 removed (domain or fragment)
chain: SARSLRSLQRQRAILKVMNTIGGVAYLREQFYESVSKYMGSTTTLDKKTVRGDVDLMVESEKLGARTEPVSGRKIIFLPTVGEDAIQRYILKEKDSKKATFTDVIHDTEIYFFDQTEKNRFHRGKKSVERIRKFQN
